{
  "source": "paper PMC2931317",
  "binders": {"B1": {"name": "dsDNA40 (dsDNA)", "DNA 1": "CCGGGCTGCACATGGTTAATGGCCAGTCCACGCGTAGATC", "DNA 2": "GATCTACGCGTGGACTGGCCATTAACCATGTGCAGCCCGG"}},
  "target": "T1, DIP1-c (Disconnected Interacting Protein 1, longest isoform) (Drosophila melanogaster, UniProt C6TP62 1-410)",
  "T1 sequence": "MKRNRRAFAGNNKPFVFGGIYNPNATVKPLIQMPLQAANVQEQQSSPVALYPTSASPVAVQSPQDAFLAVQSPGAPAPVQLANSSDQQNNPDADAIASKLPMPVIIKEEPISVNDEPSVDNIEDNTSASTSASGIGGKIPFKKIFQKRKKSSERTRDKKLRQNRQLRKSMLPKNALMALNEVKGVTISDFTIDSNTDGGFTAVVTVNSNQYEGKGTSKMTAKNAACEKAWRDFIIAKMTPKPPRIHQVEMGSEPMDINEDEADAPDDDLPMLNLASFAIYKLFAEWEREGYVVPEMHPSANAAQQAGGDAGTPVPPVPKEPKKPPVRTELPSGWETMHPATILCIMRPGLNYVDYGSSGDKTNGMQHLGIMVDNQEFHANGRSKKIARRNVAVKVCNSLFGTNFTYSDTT",
  "assay": "EMSA",
  "data": [
    {"binder": "B1", "values": [
      {"measurement": "Kd", "value": "26 ± 8", "unit": "nM"}
    ]}
  ]
}
